IntAct's records for PubMed 20111005

B1: CCAAT/enhancer-binding protein beta (Gallus gallus (Chicken)), Q05826 (parent)
chain: MQRLVAWDAACLPIQPPAFKSMEVANFYYEADCLAALNKLHPRAAGGRSMTELTVGDHERAIDFSPYLDPLAASQQPAQPPPPAAAAGGNFEPACSSGGQDFLSDLFAEDYKGSGGGKKPDYTYISLTRHGHPCGSQSHKPGVLPGCFPPQIVETKVEPVFETLDSCKGPRKEEGGAGPGPGGMSSPYGSTVRSYLGYQSVPSGSSGNLSTSSSSSPPGTPNPSESSKSAAGAGGYSGPPAGKNKPKKCVDKHSDEYKLRRERNNIAVRKSRDKAKMRNLETQHKVLELTAENERLQKKVEQLSRELSTLRNLFKQLPEPLLASSPRC

Variants of: B1
Settings: with smca2_human SMARCA2, P51531
Chain of smca2_human SMARCA2, P51531 (P51531 whole entry): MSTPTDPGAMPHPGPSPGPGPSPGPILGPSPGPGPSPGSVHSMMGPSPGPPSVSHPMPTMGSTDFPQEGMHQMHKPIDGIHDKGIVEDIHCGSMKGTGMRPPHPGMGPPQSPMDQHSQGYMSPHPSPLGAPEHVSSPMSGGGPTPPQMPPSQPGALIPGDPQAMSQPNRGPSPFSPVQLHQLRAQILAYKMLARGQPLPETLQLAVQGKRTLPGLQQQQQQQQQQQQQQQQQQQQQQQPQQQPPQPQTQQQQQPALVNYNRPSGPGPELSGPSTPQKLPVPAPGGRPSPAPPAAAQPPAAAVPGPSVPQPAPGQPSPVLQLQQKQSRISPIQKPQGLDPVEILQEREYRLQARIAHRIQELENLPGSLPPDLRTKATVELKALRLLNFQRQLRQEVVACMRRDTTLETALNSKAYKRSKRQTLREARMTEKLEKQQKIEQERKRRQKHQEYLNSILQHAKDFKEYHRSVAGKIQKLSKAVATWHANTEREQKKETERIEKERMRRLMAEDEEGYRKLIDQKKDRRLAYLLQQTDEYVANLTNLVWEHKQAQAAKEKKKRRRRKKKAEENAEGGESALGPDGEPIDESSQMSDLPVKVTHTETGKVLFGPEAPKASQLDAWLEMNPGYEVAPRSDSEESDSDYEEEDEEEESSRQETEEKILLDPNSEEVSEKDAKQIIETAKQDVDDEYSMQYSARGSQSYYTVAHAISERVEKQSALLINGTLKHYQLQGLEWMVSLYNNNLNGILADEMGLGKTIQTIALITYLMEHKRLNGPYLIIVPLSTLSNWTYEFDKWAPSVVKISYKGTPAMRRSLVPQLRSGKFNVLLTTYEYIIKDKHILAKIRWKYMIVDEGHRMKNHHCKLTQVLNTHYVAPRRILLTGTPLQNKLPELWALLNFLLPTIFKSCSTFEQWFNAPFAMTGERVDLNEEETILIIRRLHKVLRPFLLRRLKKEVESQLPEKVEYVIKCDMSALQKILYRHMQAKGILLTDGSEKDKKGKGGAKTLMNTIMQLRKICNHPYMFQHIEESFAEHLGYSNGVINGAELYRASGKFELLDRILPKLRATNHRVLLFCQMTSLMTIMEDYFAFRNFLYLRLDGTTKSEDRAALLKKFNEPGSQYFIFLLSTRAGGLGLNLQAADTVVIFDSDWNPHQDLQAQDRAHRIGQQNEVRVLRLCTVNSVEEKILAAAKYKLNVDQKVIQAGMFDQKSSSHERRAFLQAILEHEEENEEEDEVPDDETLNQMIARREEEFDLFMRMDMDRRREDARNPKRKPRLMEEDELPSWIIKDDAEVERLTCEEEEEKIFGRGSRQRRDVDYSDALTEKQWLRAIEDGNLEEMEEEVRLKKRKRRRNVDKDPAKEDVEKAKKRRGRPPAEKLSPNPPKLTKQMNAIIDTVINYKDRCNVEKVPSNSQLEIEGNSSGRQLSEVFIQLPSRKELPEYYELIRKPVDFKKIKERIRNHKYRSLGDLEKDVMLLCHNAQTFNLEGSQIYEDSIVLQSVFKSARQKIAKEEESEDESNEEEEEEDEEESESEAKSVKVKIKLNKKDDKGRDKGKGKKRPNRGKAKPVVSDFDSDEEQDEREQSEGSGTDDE

Variant	effect of a mutation on the interaction
MQLLVAWDAACLPIQPPAFKSMEVANFYYEADCLAALNKLHPRAAGGRSMTELTVGDHERAIDFSPYLDPLAASQQPAQPPPPAAAAGGNFEPACSSGGQDFLSDLFAEDYKGSGGGKKPDYTYISLTRHGHPCGSQSHKPGVLPGCFPPQIVETKVEPVFETLDSCKGPRKEEGGAGPGPGGMSSPYGSTVRSYLGYQSVPSGSSGNLSTSSSSSPPGTPNPSESSKSAAGAGGYSGPPAGKNKPKKCVDKHSDEYKLRRERNNIAVRKSRDKAKMRNLETQHKVLELTAENERLQKKVEQLSRELSTLRNLFKQLPEPLLASSPRC [R3L]	decreasing interaction
